The data set concerns Micrococcus lysodeikticus cells. Kind of data set: Lysozyme enzyme activity assay. The class given is biochemical. The following applies: micropost tips 80% lysozyme and 20% PEO 200k versus uncompressed powder. How it is done:
To measure the activity of lysozyme, the assay provided by Sigma Aldrich was used which measures the amount of lysed Micrococcus lysodeikticus cells. Briefly, a 200 unit/mL Lysozyme solution in 50 mM Potassium Phosphate Buffer was added to a 0.015% [w/v] Micrococcus lysodeikticus cell suspension in the same buffer. The decrease was recorded in A450 over 5 minutes. Nine micropost tips were fabricated from 80% lysozyme and 20% PEO 200k and dissolved sets of three micropost tips together. Triplicate assays were performed on each dissolved solution for a total of nine tests and the results were compared to the results of a solution made with lysozyme that was not compressed into a micropost tip.

For the substance lysozyme, the “enzymatic activity after the manufacturing process” value is recorded as “maintain their activity”.

The values above are taken from patent publication US12059562B2, “Systems for electrical stimulation” (priority 2018, dated 2024).
